Molecular target: murine Htk ligand (murine)
Test: steady-state competition of 125I-Htk-Fc with unlabelled Htk-Fc on SV40MES 13 cells, Scatchard analysis

Substance: soluble Htk receptor-Fc fusion protein
- Kd: 3 nM

From patent US5624899
